What all share (experiment): ELISA
The target of assay [1] is T1, human EphA2 extracellular region-SEAP-His protein (human, UniProt P29317 24-537).
T1 construct: extracellular domain; also called hEphA2-SEAP-His

Assay [2] concerns the target T2, human EphA3 extracellular region-SEAP-His protein (human, UniProt P29320 21-541).
T2 construct: extracellular domain; also called hEphA3-SEAP-His
T2 sequence (looked up): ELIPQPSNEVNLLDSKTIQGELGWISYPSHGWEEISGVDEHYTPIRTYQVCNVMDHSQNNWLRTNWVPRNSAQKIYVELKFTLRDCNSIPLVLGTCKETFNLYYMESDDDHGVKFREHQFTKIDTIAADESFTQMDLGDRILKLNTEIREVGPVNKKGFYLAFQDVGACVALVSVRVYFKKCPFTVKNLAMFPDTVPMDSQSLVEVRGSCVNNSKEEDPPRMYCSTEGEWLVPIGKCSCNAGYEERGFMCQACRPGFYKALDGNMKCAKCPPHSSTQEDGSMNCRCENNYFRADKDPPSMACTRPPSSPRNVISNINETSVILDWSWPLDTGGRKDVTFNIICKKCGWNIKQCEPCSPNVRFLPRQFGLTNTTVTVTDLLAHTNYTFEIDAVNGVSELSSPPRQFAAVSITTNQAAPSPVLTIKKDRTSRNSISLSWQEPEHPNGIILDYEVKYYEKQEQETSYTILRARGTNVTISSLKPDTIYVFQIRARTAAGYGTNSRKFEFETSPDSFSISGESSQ

Assay [3] concerns the target T3, human EphA5 extracellular region-SEAP-His protein (human, UniProt P54756 25-573).
T3 construct: extracellular domain; also called hEphA5-SEAP-His

In assay [4] the target is T4, human EphA7 extracellular region-SEAP-His protein (human, UniProt Q15375 28-555).
T4 construct: extracellular domain; also called hEphA7-SEAP-His
T4 sequence (looked up): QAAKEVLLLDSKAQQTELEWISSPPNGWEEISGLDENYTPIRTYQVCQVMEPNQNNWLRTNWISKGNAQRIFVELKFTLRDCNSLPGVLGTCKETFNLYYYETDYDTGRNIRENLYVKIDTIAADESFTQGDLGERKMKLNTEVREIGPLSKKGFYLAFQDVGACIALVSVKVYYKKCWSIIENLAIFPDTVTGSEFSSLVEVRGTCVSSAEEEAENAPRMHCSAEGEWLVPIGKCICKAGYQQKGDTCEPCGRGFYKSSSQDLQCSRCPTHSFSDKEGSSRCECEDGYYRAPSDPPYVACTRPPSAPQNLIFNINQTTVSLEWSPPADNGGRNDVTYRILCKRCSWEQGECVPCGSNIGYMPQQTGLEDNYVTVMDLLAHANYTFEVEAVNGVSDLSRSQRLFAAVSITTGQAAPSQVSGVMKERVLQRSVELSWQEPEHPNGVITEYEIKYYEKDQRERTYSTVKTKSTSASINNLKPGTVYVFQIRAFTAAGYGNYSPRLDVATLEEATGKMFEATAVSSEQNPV

In assay [5] the target is T5, human EphA8 extracellular region-SEAP-His protein (human, UniProt P29322 28-542).
T5 construct: extracellular domain; also called hEphA8-SEAP-His
T5 sequence (looked up): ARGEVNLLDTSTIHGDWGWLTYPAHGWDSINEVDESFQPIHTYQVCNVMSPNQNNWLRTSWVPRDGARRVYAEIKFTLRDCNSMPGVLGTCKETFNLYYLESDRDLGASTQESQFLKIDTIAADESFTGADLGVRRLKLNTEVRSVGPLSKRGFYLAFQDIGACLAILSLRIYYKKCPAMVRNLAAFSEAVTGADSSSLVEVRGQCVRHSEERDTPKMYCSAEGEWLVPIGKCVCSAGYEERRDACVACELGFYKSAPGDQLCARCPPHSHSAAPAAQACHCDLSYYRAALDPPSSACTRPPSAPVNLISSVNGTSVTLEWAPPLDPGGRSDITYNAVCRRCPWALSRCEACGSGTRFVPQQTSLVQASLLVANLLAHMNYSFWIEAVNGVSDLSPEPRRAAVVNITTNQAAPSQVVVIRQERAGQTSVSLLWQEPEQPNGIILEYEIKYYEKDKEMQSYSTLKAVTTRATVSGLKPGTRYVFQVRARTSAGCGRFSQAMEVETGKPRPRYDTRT

For assay [6], the target named is T6, human EphB4 extracellular region-SEAP-His protein (human, UniProt P54760 16-539).
T6 construct: extracellular domain; also called hEphB4-SEAP-His
T6 sequence (looked up): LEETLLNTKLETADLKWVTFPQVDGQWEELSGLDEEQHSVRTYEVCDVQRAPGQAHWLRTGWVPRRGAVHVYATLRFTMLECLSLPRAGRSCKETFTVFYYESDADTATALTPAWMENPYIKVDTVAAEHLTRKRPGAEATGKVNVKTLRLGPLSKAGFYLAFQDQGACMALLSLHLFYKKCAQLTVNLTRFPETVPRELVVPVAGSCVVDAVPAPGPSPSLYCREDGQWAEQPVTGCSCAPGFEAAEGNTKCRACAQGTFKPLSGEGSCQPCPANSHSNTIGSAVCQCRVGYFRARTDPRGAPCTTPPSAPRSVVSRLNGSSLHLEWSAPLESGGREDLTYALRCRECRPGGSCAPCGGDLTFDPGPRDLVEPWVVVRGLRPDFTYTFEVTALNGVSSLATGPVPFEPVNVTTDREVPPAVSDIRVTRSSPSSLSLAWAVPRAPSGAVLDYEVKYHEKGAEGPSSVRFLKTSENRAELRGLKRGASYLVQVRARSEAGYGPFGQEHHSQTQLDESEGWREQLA

Experimental findings from US20190077860A1 (EISAI R AND D MANAGEMENT, published 2019) are described below.

T3 sequence (P54756 25-573): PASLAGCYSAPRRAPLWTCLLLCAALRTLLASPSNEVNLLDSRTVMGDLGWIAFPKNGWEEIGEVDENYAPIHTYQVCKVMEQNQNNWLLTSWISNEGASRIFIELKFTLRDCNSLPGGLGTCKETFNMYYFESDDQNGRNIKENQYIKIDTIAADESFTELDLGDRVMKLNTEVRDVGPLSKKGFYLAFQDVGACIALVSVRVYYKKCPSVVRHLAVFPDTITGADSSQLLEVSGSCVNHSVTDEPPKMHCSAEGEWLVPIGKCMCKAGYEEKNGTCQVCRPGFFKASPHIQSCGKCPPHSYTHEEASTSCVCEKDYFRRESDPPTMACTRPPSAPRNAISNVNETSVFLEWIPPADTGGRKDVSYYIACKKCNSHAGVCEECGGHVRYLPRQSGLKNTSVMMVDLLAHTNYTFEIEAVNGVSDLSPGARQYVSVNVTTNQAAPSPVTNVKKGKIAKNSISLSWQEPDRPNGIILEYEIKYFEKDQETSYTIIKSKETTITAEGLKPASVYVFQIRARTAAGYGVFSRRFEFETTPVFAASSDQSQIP
T1 sequence (P29317 24-537): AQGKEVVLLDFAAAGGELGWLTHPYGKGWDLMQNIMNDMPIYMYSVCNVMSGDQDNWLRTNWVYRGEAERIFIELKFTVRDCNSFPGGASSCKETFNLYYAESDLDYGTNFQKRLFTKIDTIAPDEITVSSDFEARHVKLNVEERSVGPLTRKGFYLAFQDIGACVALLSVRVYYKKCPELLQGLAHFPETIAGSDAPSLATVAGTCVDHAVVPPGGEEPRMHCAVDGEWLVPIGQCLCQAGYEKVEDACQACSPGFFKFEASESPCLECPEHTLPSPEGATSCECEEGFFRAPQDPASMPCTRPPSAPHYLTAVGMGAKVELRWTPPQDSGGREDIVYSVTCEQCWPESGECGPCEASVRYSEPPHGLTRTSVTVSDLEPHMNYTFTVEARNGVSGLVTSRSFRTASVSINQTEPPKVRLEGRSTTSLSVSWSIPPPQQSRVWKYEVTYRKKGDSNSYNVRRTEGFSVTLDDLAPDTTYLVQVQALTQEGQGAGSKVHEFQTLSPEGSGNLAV

B1: humanized antibody No. 136 (antibody, human IgG2)
heavy: QVQLVQSGSELKKPGASVKVSCKASGYTFTDYSMHWVRQAPGQGLKWMGWINTETGEPTYADDFKGRFVFSLDTSVSTAYLQISSLKAEDTAVYYCARIPLYYYGSRYWYFDVWGQGTTVTVSSASTKGPSVFPLAPSSRSTSESTAALGCLVKDYFPEPVTVSWNSGALTSGVHTFPAVLQSSGLYSLSSVVTVPSSNFGTQTYTCNVDHKPSNTKVDKTVERKSCVECPPCPAPPAAAPSVFLFPPKPKDTLMISRTPEVTCVVVDVSHEDPEVQFNWYVDGVEVHNAKTKPREEQFNSTFRVVSVLTVVHQDWLNGKEYKCKVSNKGLPAPIEKTISKTKGQPREPQVYTLPPSREEMTKNQVSLTCLVKGFYPSDIAVEWESNGQPENNYKTTPPMLDSDGSFFLYSKLTVDKSRWQQGNVFSCSVMHEALHNHYTQKSLSLSPG
light: EIVMTQSPATLSVSPGERATLSCRASENIYRNLAWYQQKPGQSPRLLIYAATNLADGIPARFSGSGSGTEYTLTISSLQSEDFAVYYCQHFWGTPWTFGQGTKVEIKRTVAAPSVFIFPPSDEQLKSGTASVVCLLNNFYPREAKVQWKVDNALQSGNSQESVTEQDSKDSTYSLSSTLTLSKADYEKHKVYACEVTHQGLSSPVTKSFNRGEC
notes: human Ig kappa; also called L2-4/HK2
On to B1, for which the “A450 as % of hEphA4-SEAP-His” value in assay [1] amounted to 5.1%; in assay [2], 5.2%; in assay [3], 5.2%; in assay [4] it was 5.4%; in assay [5], 5.4%; in assay [6], 5.2%.

B2: humanized antibody No. 94 (antibody, human IgG1, kappa)
heavy: QVQLVQSGSELKKPGASVKVSCKASGYTFTDYSMHWVRQAPGQGLKWMGWINTETGEPTYAQGFTGRFVFSLDTSVSTAYLQISSLKAEDTAVYYCARIPLYYYGSRYWYFDVWGQGTTVTVSSASTKGPSVFPLAPSSKSTSGGTAALGCLVKDYFPEPVTVSWNSGALTSGVHTFPAVLQSSGLYSLSSVVTVPSSSLGTQTYICNVNHKPSNTKVDKRVEPKSCDKTHTCPPCPAPPAAAPSVFLFPPKPKDTLMISRTPEVTCVVVDVSHEDPEVQFNWYVDGVEVHNAKTKPREEQFNSTFRVVSVLTVVHQDWLNGKEYKCKVSNKGLPAPIEKTISKTKGQPREPQVYTLPPSREEMTKNQVSLTCLVKGFYPSDIAVEWESNGQPENNYKTTPPMLDSDGSFFLYSKLTVDKSRWQQGNVFSCSVMHEALHNHYTQKSLSLSPG
light: EIVMTQSPATLSVSPGERATLSCRASENIYRNLAWYQQKPGQSPRLLIYAATNLADGIPARFSGSGSGTEYTLTISSLQSEDFAVYYCQHFWGTPWTFGQGTKVEIKRTVAAPSVFIFPPSDEQLKSGTASVVCLLNNFYPREAKVQWKVDNALQSGNSQESVTEQDSKDSTYSLSSTLTLSKADYEKHKVYACEVTHQGLSSPVTKSFNRGEC
notes: human Ig kappa; also called L2-4/HA2
Turning to B2, the “A450 as % of hEphA4-SEAP-His” value in assay [1] stood at 6.4%; in assay [2] it was 6.8%; in assay [3] it was 6.5%; in assay [4], 6.1%; in assay [5], 7%; in assay [6], 6.5%.

B3: humanized antibody No. 137 (antibody, human IgG2)
heavy: QIQLVQSGSELKKPGASVKVSCKASGYTFTDYSMHWVRQAPGQGLKWMGWINTETGEPTYADDFKGRFVFSLDTSVSTAYLQISSLKAEDTAVYYCARIPLYYYGSRYWYFDVWGQGTTVTVSSASTKGPSVFPLAPSSRSTSESTAALGCLVKDYFPEPVTVSWNSGALTSGVHTFPAVLQSSGLYSLSSVVTVPSSNFGTQTYTCNVDHKPSNTKVDKTVERKSCVECPPCPAPPAAAPSVFLFPPKPKDTLMISRTPEVTCVVVDVSHEDPEVQFNWYVDGVEVHNAKTKPREEQFNSTFRVVSVLTVVHQDWLNGKEYKCKVSNKGLPAPIEKTISKTKGQPREPQVYTLPPSREEMTKNQVSLTCLVKGFYPSDIAVEWESNGQPENNYKTTPPMLDSDGSFFLYSKLTVDKSRWQQGNVFSCSVMHEALHNHYTQKSLSLSPG
light: EIVMTQSPATLSVSPGERATLSCRASENIYRNLAWYQQKPGQSPRLLIYAATNLADGIPARFSGSGSGTEYTLTISSLQSEDFAVYYCQHFWGTPWTFGQGTKVEIKRTVAAPSVFIFPPSDEQLKSGTASVVCLLNNFYPREAKVQWKVDNALQSGNSQESVTEQDSKDSTYSLSSTLTLSKADYEKHKVYACEVTHQGLSSPVTKSFNRGEC
notes: human Ig kappa; also called L2-4/HK4
Regarding B3, the “A450 as % of hEphA4-SEAP-His” value was determined as 5.4% in assay [1]; 5.6% in assay [2]; 5.7% in assay [3]; 5.8% in assay [4]; 5.9% in assay [5]; 5.7% in assay [6].

B4: humanized antibody No. 71 (antibody, human IgG1, kappa)
heavy: QIQLVQSGSELKKPGASVKVSCKASGYTFTDYSMHWVRQAPGQGLKWMGWINTETGEPTYAQGFTGRFVFSLDTSVSTAYLQISSLKAEDTAVYYCARIPLYYYGSRYWYFDVWGQGTTVTVSSASTKGPSVFPLAPSSKSTSGGTAALGCLVKDYFPEPVTVSWNSGALTSGVHTFPAVLQSSGLYSLSSVVTVPSSSLGTQTYICNVNHKPSNTKVDKRVEPKSCDKTHTCPPCPAPPAAAPSVFLFPPKPKDTLMISRTPEVTCVVVDVSHEDPEVQFNWYVDGVEVHNAKTKPREEQFNSTFRVVSVLTVVHQDWLNGKEYKCKVSNKGLPAPIEKTISKTKGQPREPQVYTLPPSREEMTKNQVSLTCLVKGFYPSDIAVEWESNGQPENNYKTTPPMLDSDGSFFLYSKLTVDKSRWQQGNVFSCSVMHEALHNHYTQKSLSLSPG
light: EIVMTQSPATLSVSPGERATLSCRASENIYRNLAWYQQKPGQSPRLLIYAATNLADGIPARFSGSGSGTEYTLTISSLQSEDFAVYYCQHFWGTPWTFGQGTKVEIKRTVAAPSVFIFPPSDEQLKSGTASVVCLLNNFYPREAKVQWKVDNALQSGNSQESVTEQDSKDSTYSLSSTLTLSKADYEKHKVYACEVTHQGLSSPVTKSFNRGEC
notes: human Ig kappa; also called L2-4/HA4
Consider B4, for which the “A450 as % of hEphA4-SEAP-His” value in assay [1] stood at 5.7%; in assay [2], 5.6%; in assay [3], 5.6%; in assay [4], 5.2%; in assay [5], 5.3%; in assay [6] it was 5.5%.
